Measured values taken from patent US20160138049A1, “OXYGEN-TOLERANT CoA-ACETYLATING [sequence] DEHYDROGENASE CONTAINING PATHWAY FOR BIOFUEL PRODUCTION” (The Regents of the University of California, priority 2013, published 2016).

T1: Lactobacillus brevis PduP, CoA-acylating propionaldehyde dehydrogenase (PduP_L.bre, YP_795711, SEQ ID NO:47 and 48), poly-His6 tagged (Levilactobacillus brevis, UniProt Q03Q42)
T1 sequence (Q03Q42 1-477): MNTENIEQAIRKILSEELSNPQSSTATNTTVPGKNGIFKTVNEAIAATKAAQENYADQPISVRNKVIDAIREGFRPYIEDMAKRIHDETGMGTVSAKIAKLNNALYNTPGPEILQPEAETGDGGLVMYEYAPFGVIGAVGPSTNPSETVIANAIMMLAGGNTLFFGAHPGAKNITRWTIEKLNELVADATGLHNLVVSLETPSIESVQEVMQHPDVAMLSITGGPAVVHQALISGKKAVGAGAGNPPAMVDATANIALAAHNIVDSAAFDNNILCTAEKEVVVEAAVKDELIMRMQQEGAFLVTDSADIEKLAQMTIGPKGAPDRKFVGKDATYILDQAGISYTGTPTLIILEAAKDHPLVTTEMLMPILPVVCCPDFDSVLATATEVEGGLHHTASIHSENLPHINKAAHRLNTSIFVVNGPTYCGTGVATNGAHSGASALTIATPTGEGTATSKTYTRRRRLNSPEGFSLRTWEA

B1: A. hyd: PduP homologue from Aeromonas hydrophila, YP_855873; SEQ ID NO:43 and 44 (protein, listed as Aeromonas hydrophila)
chain: MLSRQNARELVRNAKQAQVIMATFSQQKIDAIVKNVAEEAARHAETLAKMAAEETGFGNWQDKVLKNRFASLHVYDAIKEMKTVGIIHDDQAKKVMDVGVPLGVICALVPSTNPTSTIFYKTLIALKAGNAIIFSPHPGARQCSWKAIEIVKRAAEAAGAPAGIVDGVTQLTLEATSELMHSKDVSLILATGGEGMVRAAYASGTPTISGGPGNGPAFIERSADIHQAVKDIITSKTFDNGVICASEQSIIVERCIYDEVHRELAAQGAYFMNEDEAARMAALLLRPNGTINPKVVGKTALHLSQLAGFSVPPSTRVLVAEQTTVSHSNPYSREKLCPVLGLYVEEEWRAACHRVVELLTNEGLGHTLVIHTRNQDVIRQFSLEKPVNRILINTPAALGGIGATTNLTPALTLGCGAVGGGSSSDNVGPMNLLNIRKVGYGVRTIEELRAPIQPVAVQPASAAPTAPQPCSILDDARFSAPAPACHSADDRFAGASAEVGGEISEQNVERVIRQVLERLGK
B2: P. gin: PduP homologue from Porphyromonas gingivalis, YP_001928839; SEQ ID NO:51 and 52 (protein, listed as Porphyromonas gingivalis)
chain: MEIKEMVSLARKAQKEYQATHNQEAVDNICRAAAKVIYENAAILAREAVDETGMGVYEHKVAKNQGKSKGVWYNLHNKKSVGILNIDERTGMIEIAKPIGVVGAVTPTTNPIVTPMSNIIFALKTCNAIIIAPHPRSKKCSAHAVRLIKEAIAPFNVPEGMVQIIEEPSIEKTQELMGAVDVVVATGGMGMVKSAYSSGKPSFGVGAGNVQVIVDSNIDFEAAAEKIITGRAFDNGIICSGEQSIIYNEADKEAVFTAFRNHGAYFCDEAEGDRARAAIFENGAIAKDVVGQSVAFIAKKANINIPEGTRILVVEARGVGAEDVICKEKMCPVMCALSYKHFEEGVEIARTNLANEGNGHTCAIHSNNQAHIILAGSELTVSRIVVNAPSATTAGGHIQNGLAVTNTLGCGSWGNNSISENFTYKHLLNISRIAPLNSSIHIPDDKEIWEL
B3: S. ent: CoA-acylating propionaldehyde dehydrogenase (PduP) from Salmonella enterica, AAD39015; SEQ ID NO:33 and 34 (protein, listed as Salmonella enterica)
chain: MNTSELETLIRTILSEQLTTPAQTPVQPQGKGIFQSVSEAIDAAHQAFLRYQQCPLKTRSAIISAMRQELTPLLAPLAEESANETGMGNKEDKFLKNKAALDNTPGVEDLTTTALTGDGGMVLFEYSPFGVIGSVAPSTNPTETIINNSISMLAAGNSIYFSPHPGAKKVSLKLISLIEEIAFRCCGIRNLVVTVAEPTFEATQQMMAHPRIAVLAITGGPGIVAMGMKSGKKVIGAGAGNPPCIVDETADLVKAAEDIINGASFDYNLPCIAEKSLIVVESVAERLVQQMQTFGALLLSPADTDKLRAVCLPEGQANKKLVGKSPSAMLEAAGIAVPAKAPRLLIALVNADDPWVTSEQLMPMLPVVKVSDFDSALALALKVEEGLHHTAIMHSQNVSRLNLAARTLQTSIFVKNGPSYAGIGVGGEGFTTFTIATPTGEGTTSARTFARSRRCVLTNGFSIR
B4: L. mon: PduP homologue from Listeria monocytigenes, NP_464690; SEQ ID NO:49 and 50 (protein)
chain: MESLELEKLVKKVLLEKLAEQKGIPVKTMTKGAKSGVFDTVDEAVQAAVIAQNSYKEKSLEERRNVVKAIREALYPEIESIAARAVAETGMGNVADKILKNTLAIEKTPGVEDLYTEVATGDNGMTLYELSPYGVIGAVAPSTNPTETLICNTIGMLAAGNAVFYSPHPGAKNISLWLIEKLNTIVRESCGVDNLVVTVEKPSIQAAQEMMNHPKVPLLVITGGPGVVLQAMQSGKKVIGAGAGNPPSIVDETANIEKAAADIVDGASFDHNILCIAEKSVVAVDSIADFLMFQMEKNGALHVTNPSDIQKLEKVAVTDKGVTNKKLVGKSASEILKEAGIACDFSPRLIIVETEKTHPFATVELLMPIVPVVRVPNFEEALEVAIELEQGLHHTATMHSQNISRLNKAARDMQTSIFVKNGPSFAGLGFRGEGSTTFTIATPTGEGTTTARHFARRRRCVLTDGFSIR
modifications: Listeria monocytogenes

Assays:
[1] = system: CC(=O)SCCNC(=O)CCNC(=O)[C@H](O)C(C)(C)COP(=O)(O)OP(=O)(O)OC[C@H]1O[C@@H](n2cnc3c(N)ncnc32)[C@H](O)[C@@H]1OP(=O)(O)O; assay: purified protein, by the assay type; details: other: pH 7.15, 30° C., 500 μM NADH, 1 mM DTT, acyl-CoA 0.03 mM to 2 mM
Description: (§5) Enzyme assays were conducted by using Bio-Tek PowerWave XS microplate spectrophotometer. CoA-acylating aldehyde dehydrogenase activity was measured by the decrease of absorbance at 340 nm, corresponding to depletion of NADH. […] The addition of the acyl-CoA initiated the reaction. kcat and Km were determined by nonlinear regression fitting to Michaelis-Menten equation using graphing software Origin.

[2] = system: CCCC(=O)SCCNC(=O)CCNC(=O)[C@H](O)C(C)(C)COP(=O)(O)OP(=O)(O)OC[C@H]1O[C@@H](n2cnc3c(N)ncnc32)[C@H](O)[C@@H]1OP(=O)(O)O; assay: purified protein, by the assay type; details: other: pH 7.15, 30° C., 500 μM NADH, 1 mM DTT, acyl-CoA 0.03 mM to 2 mM
Description: as §5

[3] = target: T1, Lactobacillus brevis PduP, CoA-acylating propionaldehyde dehydrogenase (PduP_L.bre, YP_795711, SEQ ID NO:47 and 48), poly-His6 tagged; assay: Kinetic parameters of PduP (CoA-acylating aldehyde dehydrogenase), NADH depletion at 340 nm; format: biochemical; details: pH 7.15, 30° C., 500 μM NADH, 1 mM DTT, acyl-CoA 0.03 mM to 2 mM
Description: (§1) Protein purification was done by using His-Spin Protein miniprep purification kit from Zymo following manufacturer's manual. Overnight culture of E. coli strain BL-21(DE3) harboring different pCDF-pdup plasmid was used to inoculate fresh 20 ml LB. The newly inoculated culture was incubated at 37° C. until OD600 nm reaches 0.6 which was then induced with 1 mM IPTG. The induced cultures were then incubated overnight in 30° C. rotary shaker to allow protein expression. The cultures were then harvested by centrifugation at 4,300×g for 20 min. The pellet was then resuspended with 1 mL of Zymo His-binding buffer and mixed with 1 mL of 0.1 mm glass beads (Biospec). The sample was then homogenated using TissueLyser II (Quiagen).
(§2) Enzyme assays were conducted by using Bio-Tek PowerWave XS microplate spectrophotometer. CoA-acylating aldehyde dehydrogenase activity was measured by the decrease of absorbance at 340 nm, corresponding to depletion of NADH. […] For determining specific activity for other chain length acyl-CoA, 500 μM was used. The mixture excluding acyl-CoA was incubated for 5 minutes at 30° C. The addition of the acyl-CoA initiated the reaction. kcat and Km were determined by nonlinear regression fitting to Michaelis-Menten equation using graphing software Origin.
(§3) To characterize these PduP homologues, plasmids harboring individual pduP genes were constructed with a poly-His6 tag (plasmids pCDF-pduP_ahyd, pCDF-pdup_kpne, pCDF-pdup_lbre, pCDF-pdup_lmon, pCDF-pdup_sent, and pCDF-pdup_pgin). PduP homologues were then purified under aerobic condition without cleaving off His tags. The activities of the enzymes were determined using acyl-CoA with different chain lengths, and the disappearance of NADH was monitored.
(§4) The efficiency of these PduP homologues were assessed.

[4] = target: Klebsiella pneumoniae PduP, CoA-acylating propionaldehyde dehydrogenase (PduP_K.pne, YP_001336844, SEQ ID NO:45 and 46), poly-His6 tagged (Klebsiella pneumoniae, UniProt A0ACD7U6D7); assay: as above; details: pH 7.15, 30° C., 500 μM NADH, 1 mM DTT, acyl-CoA 0.03 mM to 2 mM
Chain of Klebsiella pneumoniae PduP, CoA-acylating propionaldehyde dehydrogenase (PduP_K.pne, YP_001336844, SEQ ID NO:45 and 46), poly-His6 tagged (A0ACD7U6D7 entry or part of it): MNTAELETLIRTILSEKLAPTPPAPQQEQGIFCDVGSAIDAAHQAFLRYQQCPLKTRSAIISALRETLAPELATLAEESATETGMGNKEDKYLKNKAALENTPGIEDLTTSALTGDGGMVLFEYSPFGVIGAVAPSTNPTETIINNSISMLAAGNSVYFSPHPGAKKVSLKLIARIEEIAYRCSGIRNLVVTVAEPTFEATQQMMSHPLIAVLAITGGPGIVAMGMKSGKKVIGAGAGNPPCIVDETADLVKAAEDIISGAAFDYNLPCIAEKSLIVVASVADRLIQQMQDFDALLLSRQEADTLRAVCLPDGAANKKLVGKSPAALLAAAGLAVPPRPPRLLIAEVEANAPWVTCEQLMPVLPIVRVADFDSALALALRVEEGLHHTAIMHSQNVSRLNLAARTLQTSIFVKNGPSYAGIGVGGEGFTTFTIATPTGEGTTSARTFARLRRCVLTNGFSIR
Description: as §1, §2, §3, §4

[5] = target: Listeria monocytigenes PduP, CoA-acylating propionaldehyde dehydrogenase (PduP_L.mon, NP_464690, SEQ ID NO:49 and 50), poly-His6 tagged (Listeria monocytogenes, UniProt Q8Y7V4); assay: as above; details: pH 7.15, 30° C., 500 μM NADH, 1 mM DTT, acyl-CoA 0.03 mM to 2 mM
Description: as §1, §2, §3, §4

[6] = target: Porphyromonas gingivalis PduP, CoA-acylating propionaldehyde dehydrogenase (PduP_P.gin, YP_001928839, SEQ ID NO:51 and 52), poly-His6 tagged (Porphyromonas gingivalis, UniProt B2RIP7); assay: as above; details: pH 7.15, 30° C., 500 μM NADH, 1 mM DTT, acyl-CoA 0.03 mM to 2 mM
Description: as §1, §2, §3, §4

[7] = target: Salmonella enterica PduP, CoA-acylating propionaldehyde dehydrogenase (PduP_S.ent, AAD39015, SEQ ID NO:33 and 34), poly-His6 tagged (Salmonella enterica, UniProt Q9XDN1); assay: as above; details: pH 7.15, 30° C., 500 μM NADH, 1 mM DTT, acyl-CoA 0.03 mM to 2 mM
Description: as §1, §2, §3, §4

[8] = CoA-acylating aldehyde dehydrogenase (PduP) assay, butyryl-CoA reduction; format: biochemical; details: purified under aerobic condition; 500 μM NADH, 1 mM DTT, pH 7.15, 30° C.
Description: as §1, §2, §3, §4

[9] = Substrate chain length specificity of PduP; format: biochemical; details: acyl-CoA chain lengths C2 to C12
Description: FIG. 3A-B Substrate chain length specificity of CoA-acylating aldehyde dehydrogenases, PduP. A) Specific activity of different PduP (pmol min^−1 mg^−1). B) Relative activity of PduP. Specific activity was determined with substrate concentration of 1 mM acyl-CoA, 500 uM NADH, 1 mM DTT in 50 mM potassium phosphate buffer at pH 7.15 at 30° C.
as §2, §3

Molecule	Km [1] [µM]	Km [2] [µM]	Specific activity for butyryl-CoA reduction [8] [µmol/min/mg]	Acyl-CoA substrate favoured (highest specific activity) [9]	also measured
Salmonella enterica PduP, CoA-acylating propionaldehyde dehydrogenase (PduP_S.ent, AAD39015, SEQ ID NO:33 and 34), poly-His6 tagged (Salmonella enterica subsp. enterica serovar Typhimurium str. LT2)	342.1 ± 94.8	87.0 ± 24.8			
CC(=O)SCCNC(=O)CCNC(=O)[C@H](O)C(C)(C)COP(=O)(O)OP(=O)(O)OC[C@H]1O[C@@H](n2cnc3c(N)ncnc32)[C@H](O)[C@@H]1OP(=O)(O)O [Acetyl-CoA, acetyl-CoA]					kcat [3]: 0.26 ± 0.10 s⁻¹; kcat [4]: 4.63 ± 0.19 s⁻¹; kcat [5]: 11.33 ± 0.97 s⁻¹; kcat [6]: 0.08 ± 0.01 s⁻¹; kcat [7]: 14.81 ± 1.00 s⁻¹
Listeria monocytigenes PduP, CoA-acylating propionaldehyde dehydrogenase (PduP_L.mon, NP_464690, SEQ ID NO:49 and 50), poly-His6 tagged (Listeria monocytogenes EGD-e)	92.6 ± 20.1	71.7 ± 20.3			
Porphyromonas gingivalis PduP, CoA-acylating propionaldehyde dehydrogenase (PduP_P.gin, YP_001928839, SEQ ID NO:51 and 52), poly-His6 tagged (Porphyromonas gingivalis ATCC 33277)	75.9 ± 25.1	256.0 ± 40.5			
Klebsiella pneumoniae PduP, CoA-acylating propionaldehyde dehydrogenase (PduP_K.pne, YP_001336844, SEQ ID NO:45 and 46), poly-His6 tagged (Klebsiella pneumoniae subsp. pneumoniae NTUH-K2044)	181.4 ± 25.1	56.0 ± 25.9			
B1			1.7 ± 0.6		
B2			0.49 ± 0.2	dodecanoyl-CoA	
B3			27 ± 14	highest for propionyl-CoA reduction	
B4			17 ± 2	highest for propionyl-CoA reduction	
